Reference: patent publication US20200181597A1, “Composition and Application of Arginine-depleting Agents for Cancer, Obesity, Metabolic Disorders, and Related Complications and Comorbidities” (THE HONG KONG POLYTECHNIC UNIVERSITY, priority 2018, published 2020)

Experiments:
[1] = molecular target: human serum albumin (HSA) (Homo sapiens, UniProt P02768); experiment: Binding to HSA on non-denaturing PAGE; conditions: fixed HSA titrated at various molar ratios
Protocol: When ABD is fused to rhArg or BCA, it is important for the fusion protein to retain both the albumin binding capacity and the enzymatic activity. […] The reaction mixtures were analyzed in their native condition on non-denaturing PAGE where the proteins were separated by size and conformation.
In FIG. 7, the mobility of each of HSA and N-ABD-rhArg (SEQ ID NO: 49) alone are shown in Lanes 2 and 3 of the non-denaturing PAGE, respectively (FIG. 7). A fixed amount of HSA (30 pmoles) was titrated against N-ABD-rhArg (SEQ ID NO: 49) at various molar ratios and the results are illustrated in Lanes 5-9. […] In FIG. 8, the mobility of each of HSA and BHA (SEQ ID NO: 75) alone are shown in Lanes 6 and 7 of the non-denaturing PAGE, respectively (FIG. 8). A fixed amount of HSA (60 pmoles) was titrated against BHA (SEQ ID NO: 75) at various molar ratios and the results are illustrated in Lanes 1-5.

plasma arginine = experiment: Plasma arginine after single i.p. dose of N-ABD-rhArg (Biochrom 30); assay type: in vivo, BALB/c mice
Protocol: FIG. 10 illustrates plasma arginine concentrations, measured using the Biochrom 30 Amino Acid Analyzer, of BALB/c mice after receiving intraperitoneal injection of a single dose of (A) 125U; (B) 250U; and (C) 500U of N-ABD-rhArg (SEQ ID NO: 49). N-ABD-rhArg (SEQ ID NO: 49) was injected at day 0.
Fifteen female BALB/c mice (10 weeks of age) were used in this study. They were kept in groups of five per cage. A single dose of N-ABD-rhArg (SEQ ID NO: 49) (500 U, 250 U, and 125 U, respectively) was administered to the mice via i.p. injection. Blood samples were collected from the saphenous vein using heparinized capillary tubes, and were centrifuged at 800×g to obtain plasma. Sixteen microliters of plasma sample was subjected to measurement of L-arginine concentration using the Biochrom 30 Amino Acid Analyzer. […] In comparing with BHA (SEQ ID NO: 75) (FIG. 9), N-ABD-rhArg (SEQ ID NO: 49) can deplete arginine to a very low level in the mice for exceptionally longer period, which highlights the importance of the requirement for rational design of the fusion protein.

[2] = system: 4T1 breast cancer xenograft; experiment: 4T1 breast cancer xenograft in nude mice; assay type: in vivo, female nude mice
Protocol: (§1) For the aggressive 4T1 breast cancer cell xenograft model studies, 10 female nude mice (11-12 weeks of age) were used. They were kept in groups of five per cage and provided food and water ad libitum. The 4T1 cancer cells were harvested by trypsinization and washed twice with 1×PBS and resuspended in 1×PBS for inoculation. The cancer cells (1×10^6 cells of 4T1) were injected subcutaneously into the left flank of the mice. […] They were injected with either 500U (3.2 mg, 230 μL) N-ABD-rhArg (SEQ ID NO: 49) or 1×PBS once per week. Blood samples were collected from the saphenous vein. Tumor size and the body weight of mice were monitored regularly. The tumor volume was estimated by the following equation: […]
The mice were sacrificed after 16 days of cancer cell inoculation (i.e. 13 days after starting of the experiment) because of necrosis of tumor in the PBS-injected control group. After being sacrificed, tumors were collected from the mice and the weight of the tumor was measured. Lungs were also collected and washed with 1×PBS. The lungs were fixed in Bouin's solution overnight and washed with 1×PBS after fixation. Lung metastatic nodules were counted.

serum arginine = experiment: Serum arginine in 4T1 xenograft nude mice (Biochrom 30); assay type: in vivo; conditions: BDL: Below Detection Level
Protocol: as §1
Importantly, 500U of the albumin-binding arginase N-ABD-rhArg (SEQ ID NO: 49) depleted arginine to a level below the detection limit of the Biochrom 30 Amino Acid Analyzer (3 μM) for at least 10 days in BALB/c mice (FIG. 10). Therefore, 500 U of N-ABD-rhArg (SEQ ID NO: 49) was administered via i.p. injection once per week to the 4T1 breast cancer xenograft nude mice for efficacy study.

[3] = system: 4T1 breast cancer allograft; experiment: 4T1 breast cancer allograft study; assay type: in vivo, female nude mice
Protocol: In another 4T1 breast cancer allograft study, female nude mice (5-6 weeks of age) were used. They were kept in groups of five per cage and provided food and water ad libitum. Cells of 4T1 breast cancer ([…]) were injected subcultuaneously into the right flank of the mice. […] There were one control group (n=8) and three experimental groups, including 500U PEGylated His-rhArg (SEQ ID NO: 101) (n=8), 500U N-ABD-rhArg (SEQ ID NO: 49) (n=6) and 250U N-ABD-rhArg (SEQ ID NO: 49) (n=8). Mice in the control group were injected with 1×PBS weekly. For the 500U ABD-rhArg group and the 250U ABD-rhArg group, mice were injected with 500U and 250U ABD-rhArg once a week, respectively; one group was injected with 500U PEG-rhArg once per week. The mice were sacrificed after 24 days of inoculation (i.e. 14 days after starting of experiment) because of necrosis of tumor in PBS control group. After sacrificing, the mice were dissected. Tumors were collected from the mice and measured their weight. Lungs were also collected and washed with 1×PBS. The lungs were fixed in Bouin's solution overnight and washed with 1×PBS after fixation. Lung metastatic nodules were counted.

[4] = Enzyme kinetics after metal ion substitution; assay type: biochemical
Protocol: Wild type arginase typically includes a Mn^2+ metal ion (D′Antonio & Christianson, 2011, Biochemistry, 50:8018-27). […] Purified N-ABD094-rhArg (SEQ ID NO: 50) in 20 mM Tris-HCl buffer (pH 7.4) was mixed with 20 mM of different divalent metal ions (Mn^2+, Ni^2+ or Co^2+), and was incubated at 52-55° C. for 15-60 min and then buffer exchanged with PBS buffer (pH 7.4).
Samples were subjected to enzyme activity and enzyme kinetic studies to determine the specific activity and catalytic efficiency (kcat/Km). Samples were applied to inductively coupled plasma atomic emission spectroscopy (ICP-OES, Agilent 700 Series ICP optical emission spectrometer) for quantitative analysis of metal content.

[5] = DIO mice treated with N-ABD094-rhArg-Co^2+; assay type: in vivo, C57BL/6J male mice; conditions: 25-100U i.p., within 5 weeks, from 55 g, HFD continued
Text: Production of N-ABD094-rhArg-Co^2+ [SEQ ID NO: 50 (cobalt substituted)] is described in Example 32. C57BL/6J male mice with pre-existing diet-induced obesity (DIO) received i.p. injection of 25-100U N-ABD094-rhArg-Co^2+[SEQ ID NO: 50 (cobalt substituted)] for 5 weeks, while continuously being fed a HFD.

[6] = literature; cited from earlier work

B1: N-ABD-rhArg: albumin binding domain (ABD) fused N-terminally to recombinant human arginase I, SEQ ID NO: 49 (protein)
chain: MHHHHHHDEAVDANSLAEAKVLANRELDKYGVSDYYKNLINNAKTVEGVKALIDEILAALPSGSNNNNNNGSGGMSAKSRTIGIIGAPFSKGQPRGGVEEGPTVLRKAGLLEKLKEQECDVKDYGDLPFADIPNDSPFQIVKNPRSVGKASEQLAGKVAEVKKNGRISLVLGGDHSLAIGSISGHARVHPDLGVIWVDAHTDINTPLTTTSGNLHGQPVSFLLKELKGKIPDVPGFSWVTPCISAKDIVYIGLRDVDPGEHYILKTLGIKYFSMTEVDRLGIGKVMEETLSYLLGRKKRPIHLSFDVDGLDPSFTPATGTPVVGGLTYREGLYITEEIYKTGLLSGLDIMEVNPSLGKTPEEVTRTVNTAVAITLACFGLAREGNHKPIDYLNPPK
modifications: N-ABD-rhArg, Synthesized in the Lab
Q: Which results are given for B1?
A: binding to HSA (free HSA reduced in a proportional manner) [1]: specific binding; time serum arginine below detection limit (3 μM) (plasma arginine; single i.p. dose 125U): at least 3 days; time serum arginine below detection limit (3 μM) (plasma arginine; single i.p. dose 250U): at least 7 days; growth of 4T1 breast cancer xenograft ([2]; 500U once per week): inhibit the growth; Number of metastatic nodules found in lungs ([2]; 500 U once per week, n = 4 (PBS control: 3)): 0; % of metastasis free animals ([2]; 500 U once per week, n = 4 (PBS control: 50%)): 100%; estimated tumor volume vs control group ([2]; 500U once per week, 12 days and 13 days after starting): significant difference; Arginine Concentration (serum), individual mice 1-4 (serum arginine; Day 6, 500 U once per week): 0 (BDL) μM; Arginine Concentration (serum), individual mice 1-4 (serum arginine; Day 13, 500 U once per week): 0 (BDL) μM; growth of 4T1 solid tumor ([3]; 250U once per week): did not inhibit the growth; growth of 4T1 solid tumor ([3]; 500U once per week): inhibited the growth of the aggressive 4T1 solid tumor significantly; metastasis nodules from the lungs vs control group ([3]; 500U once per week): very significantly reduced

B2: N-ABD094-rhArg-Co^2+: cobalt-substituted N-ABD094-rhArg enzyme (protein)
chain: MHHHHHHDEAVDANSLAEAKEAANAELDSYGVSDFYKRLIDKAKTVEGVEALKDAILAALPSGSNNNNNNGSGGMSAKSRTIGIIGAPFSKGQPRGGVEEGPTVLRKAGLLEKLKEQECDVKDYGDLPFADIPNDSPFQIVKNPRSVGKASEQLAGKVAEVKKNGRISLVLGGDHSLAIGSISGHARVHPDLGVIWVDAHTDINTPLTTTSGNLHGQPVSFLLKELKGKIPDVPGFSWVTPCISAKDIVYIGLRDVDPGEHYILKTLGIKYFSMTEVDRLGIGKVMEETLSYLLGRKKRPIHLSFDVDGLDPSFTPATGTPVVGGLTYREGLYITEEIYKTGLLSGLDIMEVNPSLGKTPEEVTRTVNTAVAITLACFGLAREGNHKPIDYLNPPK
modifications: cobalt substituted; N-ABD094-rhArg, Synthesized in the Lab
notes: cobalt-substituted N-ABD094-rhArg enzyme
Q: Which results are given for B2?
A: Km [4]: 270 to 350 µM; kcat [4]: 250 to 316 s⁻¹; bodyweight after treatment [5]: 30 g

B3: human arginase: unmodified human arginase (Georgiou et al.) (protein, UniProt P05089 1-322, looked up)
Arginase-1: MSAKSRTIGIIGAPFSKGQPRGGVEEGPTVLRKAGLLEKLKEQECDVKDYGDLPFADIPNDSPFQIVKNPRSVGKASEQLAGKVAEVKKNGRISLVLGGDHSLAIGSISGHARVHPDLGVIWVDAHTDINTPLTTTSGNLHGQPVSFLLKELKGKIPDVPGFSWVTPCISAKDIVYIGLRDVDPGEHYILKTLGIKYFSMTEVDRLGIGKVMEETLSYLLGRKKRPIHLSFDVDGLDPSFTPATGTPVVGGLTYREGLYITEEIYKTGLLSGLDIMEVNPSLGKTPEEVTRTVNTAVAITLACFGLAREGNHKPIDYLNPPK
Q: For B3, which “half-life / clearance in circulation” value [6] is on record?
A: Its value is “a few minutes”.
